Columns and labels:
[1] = target: human transcobalamin receptor (TCblR/CD320), full length, on cells (human) (UniProt Q9NPF0); assay: TC-[57Co]Cbl on normal and TCblR overexpressing HEK 293 cells, 1 hour at 37°C, surface counts released by trypsin/EDTA
[2] = target: TCblR with the cytoplasmic tail deleted, membrane-anchored on HEK293 cells (human) (UniProt Q9NPF0); assay: TC-[57Co]Cbl on HEK293 cells expressing TCblR with the cytoplasmic tail deleted, surface counts released by trypsin/EDTA

UniProt Q9NPF0, sequence (Q9NPF0 36-282 limits assumed): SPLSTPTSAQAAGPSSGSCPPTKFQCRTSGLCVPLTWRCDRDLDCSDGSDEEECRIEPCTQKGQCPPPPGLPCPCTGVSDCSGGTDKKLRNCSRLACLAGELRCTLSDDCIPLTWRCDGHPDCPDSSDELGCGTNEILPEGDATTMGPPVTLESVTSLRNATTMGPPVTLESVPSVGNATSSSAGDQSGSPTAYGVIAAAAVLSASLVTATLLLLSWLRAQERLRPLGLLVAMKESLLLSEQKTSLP

- % of the radiolabel on the membrane [1]: 37 to 43%
- % of the TCblR-bound radiolabel remaining on the cell surface [2]: 80%
B1: transcobalamin saturated with cobalamin (TC-Cbl) (ligand, human, UniProt P20062 19-427, looked up)
chain: EMCEIPEMDSHLVEKLGQHLLPWMDRLSLEHLNPSIYVGLRLSSLQAGTKEDLYLHSLKLGYQQCLLGSAFSEDDGDCQGKPSMGQLALYLLALRANCEFVRGHKGDRLVSQLKWFLEDEKRAIGHDHKGHPHTSYYQYGLGILALCLHQKRVHDSVVDKLLYAVEPFHQGHHSVDTAAMAGLAFTCLKRSNFNPGRRQRITMAIRTVREEILKAQTPEGHFGNVYSTPLALQFLMTSPMRGAELGTACLKARVALLASLQDGAFQNALMISQLLPVLNHKTYIDLIFPDCLAPRVMLEPAAETIPQTQEIISVTLQVLSLLPPYRQSISVLAGSTVEDVLKKAHELGGFTYETQASLSGPYLTSVMGKAAGEREFWQLLRDPNTPLLQGIADYRPKDGETIELRLVSW
modifications: cobalamin bound non-covalently ([57Co]Cbl in the radio assays)

— WO2013015821A1
